B1: Ribosome maturation protein SBDS (Homo sapiens), Q9Y3A5 (parent)
chain: MSIFTPTNQIRLTNVAVVRMKRAGKRFEIACYKNKVVGWRSGVEKDLDEVLQTHSVFVNVSKGQVAKKEDLISAFGTDDQTEICKQILTKGEVQVSDKERHTQLEQMFRDIATIVADKCVNPETKRPYTVILIERAMKDIHYSVKTNKSTKQQALEVIKQLKEKMKIERAHMRLRFILPVNEGKKLKEKLKPLIKVIESEDYGQQLEIVCLIDPGCFREIDELIKKETKGKGSLEVLNLKDVEEGDEKFE
partner: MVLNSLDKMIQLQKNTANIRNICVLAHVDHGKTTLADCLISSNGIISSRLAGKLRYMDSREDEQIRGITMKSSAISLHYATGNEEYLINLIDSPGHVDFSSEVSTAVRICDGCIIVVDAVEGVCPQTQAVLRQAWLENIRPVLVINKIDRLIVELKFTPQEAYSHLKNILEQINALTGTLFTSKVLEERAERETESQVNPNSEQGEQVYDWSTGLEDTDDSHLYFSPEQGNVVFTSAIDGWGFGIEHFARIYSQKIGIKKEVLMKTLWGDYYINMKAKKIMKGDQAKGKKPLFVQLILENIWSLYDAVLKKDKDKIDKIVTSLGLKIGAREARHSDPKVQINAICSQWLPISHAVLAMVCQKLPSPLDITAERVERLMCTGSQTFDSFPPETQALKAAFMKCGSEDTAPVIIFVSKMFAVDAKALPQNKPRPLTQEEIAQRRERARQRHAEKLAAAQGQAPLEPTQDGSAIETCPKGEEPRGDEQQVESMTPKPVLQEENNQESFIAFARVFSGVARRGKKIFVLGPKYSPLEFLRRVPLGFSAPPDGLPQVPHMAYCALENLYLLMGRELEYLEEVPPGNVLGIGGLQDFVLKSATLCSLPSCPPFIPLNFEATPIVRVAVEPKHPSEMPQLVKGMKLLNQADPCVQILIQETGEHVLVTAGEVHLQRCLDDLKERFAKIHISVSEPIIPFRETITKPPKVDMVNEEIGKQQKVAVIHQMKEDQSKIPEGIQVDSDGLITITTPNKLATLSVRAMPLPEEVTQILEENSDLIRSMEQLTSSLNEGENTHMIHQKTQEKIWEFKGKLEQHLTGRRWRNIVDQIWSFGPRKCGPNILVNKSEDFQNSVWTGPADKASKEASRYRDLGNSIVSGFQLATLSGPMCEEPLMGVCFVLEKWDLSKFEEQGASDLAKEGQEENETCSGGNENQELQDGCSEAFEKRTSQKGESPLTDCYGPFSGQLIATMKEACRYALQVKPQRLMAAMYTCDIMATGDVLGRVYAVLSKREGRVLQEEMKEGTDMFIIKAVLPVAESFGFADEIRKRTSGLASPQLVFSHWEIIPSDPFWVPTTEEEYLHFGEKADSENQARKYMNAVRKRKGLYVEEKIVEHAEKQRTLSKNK

Variants of: B1
Details: with efl1_human EFL1, Q7Z2Z2

| effect of a mutation on the interaction | Variant |
| --- | --- |
| decreasing interaction strength | S143L |
